Test results reported in paper PMC9943661, “8-Oxoguanine targeted by 8-oxoguanine DNA glycosylase 1 (OGG1) is central to fibrogenic gene activation upon lung injury”.

Key:
[1] = biological target: T1, SMAD3 (UniProt P84022 1-425); assay: EMSA; 10 mM HEPES pH 7.9, 10 mM KCl, 1.5 mM MgCl2, 1 mM DTT, 5% glycerol, 20 nM Cy5-DNA, on ice; 6% PAGE at 4 C; settings: protein: recombinant; label: 5'-Cy5 on strand 1; blunt
[2] = biological target: OGG1 (UniProt O15527 1-345); assay: as above; settings: protein: commercial; tags: His; label: 5'-Cy5 on strand 1; blunt
[3] = biological target: T1, SMAD3; assay: EMSA; OGG1 + TH2840 (no decrease); 10 mM HEPES pH 7.9, 10 mM KCl, 1.5 mM MgCl2, 1 mM DTT, 5% glycerol, 20 nM Cy5-DNA, on ice; 6% PAGE at 4 C; settings: protein: recombinant; label: 5'-Cy5 on strand 1; blunt
[4] = biological target: SMAD2 (UniProt Q15796 1-467); assay: EMSA; with OGG1 100 nM, SMAD2 800 nM; shift increased; 10 mM HEPES pH 7.9, 10 mM KCl, 1.5 mM MgCl2, 1 mM DTT, 5% glycerol, 20 nM Cy5-DNA, on ice; 6% PAGE at 4 C; settings: protein: recombinant; label: 5'-Cy5 on strand 1; blunt
SMAD2, sequence (Q15796 whole entry): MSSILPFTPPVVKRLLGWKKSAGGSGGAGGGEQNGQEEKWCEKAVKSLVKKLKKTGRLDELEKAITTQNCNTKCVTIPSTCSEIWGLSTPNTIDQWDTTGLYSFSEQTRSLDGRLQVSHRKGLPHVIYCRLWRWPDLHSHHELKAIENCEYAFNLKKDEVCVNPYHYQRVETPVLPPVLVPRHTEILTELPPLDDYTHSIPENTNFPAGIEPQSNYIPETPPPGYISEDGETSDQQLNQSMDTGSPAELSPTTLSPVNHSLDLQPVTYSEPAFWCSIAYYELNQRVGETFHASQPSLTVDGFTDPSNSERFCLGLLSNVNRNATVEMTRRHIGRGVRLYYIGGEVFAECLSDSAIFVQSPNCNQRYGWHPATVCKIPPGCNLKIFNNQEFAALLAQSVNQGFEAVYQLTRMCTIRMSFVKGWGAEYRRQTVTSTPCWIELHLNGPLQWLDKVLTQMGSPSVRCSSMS

T1 sequence (P84022 whole entry): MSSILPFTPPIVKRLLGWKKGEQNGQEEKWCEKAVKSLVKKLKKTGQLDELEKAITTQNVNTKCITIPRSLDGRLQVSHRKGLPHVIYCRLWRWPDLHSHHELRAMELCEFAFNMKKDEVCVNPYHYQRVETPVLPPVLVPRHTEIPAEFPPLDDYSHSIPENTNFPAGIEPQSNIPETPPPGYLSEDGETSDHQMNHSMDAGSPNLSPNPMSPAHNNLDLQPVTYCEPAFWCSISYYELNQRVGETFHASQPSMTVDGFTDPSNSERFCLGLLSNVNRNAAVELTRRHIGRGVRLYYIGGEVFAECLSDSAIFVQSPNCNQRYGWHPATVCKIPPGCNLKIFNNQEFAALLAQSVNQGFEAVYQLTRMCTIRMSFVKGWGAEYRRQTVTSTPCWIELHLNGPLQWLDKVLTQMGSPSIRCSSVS
OGG1, sequence (O15527 whole entry): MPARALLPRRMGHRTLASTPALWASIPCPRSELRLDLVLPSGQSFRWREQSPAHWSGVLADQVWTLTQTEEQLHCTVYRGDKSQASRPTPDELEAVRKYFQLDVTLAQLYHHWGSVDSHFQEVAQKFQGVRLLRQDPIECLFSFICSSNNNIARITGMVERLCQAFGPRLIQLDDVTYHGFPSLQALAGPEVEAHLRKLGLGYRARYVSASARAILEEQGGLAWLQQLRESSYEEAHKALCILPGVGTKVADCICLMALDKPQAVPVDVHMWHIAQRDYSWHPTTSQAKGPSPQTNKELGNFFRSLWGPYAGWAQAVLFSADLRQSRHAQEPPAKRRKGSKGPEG

Binder | binding result [1] | binding result [2] | binding result [3] | binding result [4]
G'1 (dsDNA, 8-oxoG at strand 1 position 6) DNA 1: CCCCAGGGTGAGCCCAGCTCAGACTATCATCCGGAAAGCCCCCAAAAGTCCCAGCCC DNA 2: GGGCTGGGACTTTTGGGGGCTTTCCGGATGATAGTCTGAGCTGGGCTCACCCTGGGG | binds | binds | – | –
G'3 (dsDNA, 8-oxoG at strand 2 position 43 from its 5' end (opposite strand 1 position 15)) DNA 1: CCCCAGGGTGAGCCCAGCTCAGACTATCATCCGGAAAGCCCCCAAAAGTCCCAGCCC DNA 2: GGGCTGGGACTTTTGGGGGCTTTCCGGATGATAGTCTGAGCTGGGCTCACCCTGGGG | – | binds | binds | binds
G'2 (dsDNA, 8-oxoG at strand 2 position 6 from its 5' end) DNA 1: CCCCAGGGTGAGCCCAGCTCAGACTATCATCCGGAAAGCCCCCAAAAGTCCCAGCCC DNA 2: GGGCTGGGACTTTTGGGGGCTTTCCGGATGATAGTCTGAGCTGGGCTCACCCTGGGG | binds | binds | – | –
G (dsDNA) DNA 1: CCCCAGGGTGAGCCCAGCTCAGACTATCATCCGGAAAGCCCCCAAAAGTCCCAGCCC DNA 2: GGGCTGGGACTTTTGGGGGCTTTCCGGATGATAGTCTGAGCTGGGCTCACCCTGGGG | binds | – | – | –
